Measurements published in patent US20110135636A1 (SYMPHOGEN A S, published 2011).

B1: antibody 992 (antibody, human IgG1, kappa, V domains shown)
VH: EVQLQQPGSELVRPGASVKLSCKASGYTFTSYWMHWVKQRPGQGLEWIGNIYPGSRSTNYDEKFKSKATLTVDTSSSTAYMQLSSLTSEDSAVYYCTRNGDYYVSSGDAMDYWGQGTSVTVSS
VL: DIQMTQTTSSLSASLGDRVTISCRTSQDIGNYLNWYQQKPDGTVKLLIYYTSRLHSGVPSRFSGSGSGTDFSLTINNVEQEDVATYFCQHYNTVPPTFGGGTKLEIKR
notes: Chimeric mouse/human IgG1 kappa; the VL entry includes the human kappa constant region
B2: antibody 1024 (antibody, human IgG1, kappa, V domains shown)
VH: QVQLQQPGAELVEPGGSVKLSCKASGYTFTSHWMHWVKQRPGQGLEWIGEINPSSGRNNYNEKFKSKATLTVDKSSSTAYMQFSSLTSEDSAVYYCVRYYGYDEAMDYWGQGTSVTVSS
VL: DIVMTQAAFSNPVTLGTSASISCRSSKSLLHSNGITYLYWYLQKPGQSPQLLIYQMSNLASGVPDRFSSSGSGTDFTLRISRVEAEDVGVYYCAQNLELPYTFGGGTKLEIKR
notes: Chimeric IgG1 kappa
B3: antibody 1030 (antibody, human IgG1, kappa, V domains shown)
VH: EVQLVESGGGLVKPGGSLKLSCAASGFTFSSYALSWVRQTPERRLEWVASISGVGSTYFPDSVKGRFTMSRDNARNILYLQMSSLRSEDTAMYYCARGSDGYFYAMDYWGQGTSVTVSS
VL: DIVLTQSPASLAVSLGQRATISCRASKSVSTSGYSFMHWYQLKPGQPPKLLIYLASNLESGVPARFSGSGSGTDFTLNIHPVEEEDAATYYCQHSREFPLTFGGGTKLEIKR
notes: Chimeric IgG1 kappa
B4: antibody 1208 (antibody, human IgG1, kappa, V domains shown)
VH: EVQLVESGGGLVKPGGSLKLSCAASGFAFSSYDMSWVRQTPEKRLEWVAYIGSGDDNTHYPDSVKGRFTISRHNAKNTLYLQMSSLKSEDTAMYYCARQKYGNYGDTMDYWGQGTSVTVSS
VL: DVVMTQTPLSLPVSLGDQASISCRSSQSLVHSNGNTYLHWYLQKPGQSPKLLIYKVSNRFSGVPDRFSGSGSGTDFTLKISRVEAEDLGVYFCSQSTHVPTFGGGTKLEIKR
notes: Chimeric IgG1 kappa; also called clone 1208
B5: antibody 1260 (antibody, human IgG1, kappa, V domains shown)
VH: QVQLKESGPGLVAPSQSLSITCTVSGFSLTTYGVHWVRQPPGKGLEWLGVIWAGGSTNYNSALMSRLSIKKDNSKSQVFLKMNSLQTDDTAMYYCARAYGYNFDYWGQGTTLTVSS
VL: DIQMTQTTSSLSASLGDRVTISCSASQGITNYLNWYQQKPDGTVKLLIYYSSSLHSGVPSRFSGSGSGTDYSLTISNLEPEDIATYYCQQYSEIPYTFGGGTKLELKR
notes: Chimeric IgG1 kappa

Key:
[1] = molecular target: T1, full length human EGFR expressed on the cell surface (human, UniProt P00533 25-1210); assay: cell ELISA, IgG titrated on unfixed A431-NS cells after saturation with Fab 1030; given as ED50
T1 construct: whole, on cells; also called EGFR on A431-NS cells; EGFR on HN5 cells
Description: (§1) Cell ELISA: The ELISA was performed essentially as described in example 15 with modifications. Cells were left unfixed to allow conformational EGFR flexibility after antibody additions. Briefly, 10,000 A431-NS cells were grown in 96 well ELISA plates containing DMEM with added 0.5% FCS and 1% P/S at 37° C., 5% CO₂ overnight. […] 25 μl DMEM containing 1% BSA was added to wells used for testing of IgG antibodies without added Fab fragments. […] Next, wells were washed four times with PBS and 50 μl of a secondary monoclonal Mouse-anti-Human (Fc specific) HRP conjugate diluted 1:5000 in DMEM containing 1% BSA was added and incubated on ice for 30 min. Finally wells were washed four times with PBS and plates developed by adding 50 μl/well TMB substrate and read at 620 nm every 5-15-30 min. After incubation with substrate the reaction was stopped by addition of 1 M H₂SO₄ and absorbance read at 450 nm. The functional affinity expressed as ED50 values were calculated by subtraction of the average background binding with secondary reagent only, followed by normalization of the binding curves by plotting % maximal binding relative to each antibody tested.
(§2) Investigations of antibody induced binding enhancements were determined by concurrent ELISA binding studies, employing same secondary antibody reagent and incubation times.

[2] = molecular target: T1, full length human EGFR expressed on the …; assay: cell ELISA, IgG titrated on paraformaldehyde-fixed A431-NS cells
Description: (§3) Cell ELISA: The relative binding affinities defined as the molar concentration giving the half maximal OD (ED50) were determined by antibody titrations on A431-NS cells. Briefly, 10,000 A431-NS cells were grown in 96 well ELISA plates containing DMEM with added 0.5% FCS and 1% P/S at 37° C., 5% CO₂ overnight. […] Then 50 μl of a secondary Goat-anti-Human (Fab specific) HRP conjugate diluted 1:5000 in DMEM containing 1% BSA was added and incubated on ice for 30 min. Finally wells were washed four times with PBS and plates developed by adding 50 μl/well TMB Plus substrate and read at 620 nm every 5-15-30 min. After incubation with substrate the reaction was stopped by addition of 1 M H₂SO₄ and absorbance read at 450 nm. The functional affinity expressed as ED50 values were calculated by subtraction of the average background binding with secondary reagent only, followed by normalization of the binding curves by plotting % maximal binding relative to each antibody tested.

[3] = molecular target: T1, full length human EGFR expressed on the …; assay: cell ELISA, IgG titrated on paraformaldehyde-fixed A431-NS cells; given as ED50
Description: as §3

[4] = molecular target: T1, full length human EGFR expressed on the …; assay: cell ELISA, IgG titrated on unfixed A431-NS cells after saturation with Fab 1024 and Fab 1030; given as ED50
Description: as §1, §2

[5] = molecular target: T1, full length human EGFR expressed on the …; assay: cell ELISA, IgG titrated on unfixed A431-NS cells after saturation with Fab 992; given as ED50
Description: as §1, §2

[6] = molecular target: T1, full length human EGFR expressed on the …; assay: cell ELISA, IgG titrated on unfixed A431-NS cells after saturation with Fab 992 and Fab 1030; given as ED50
Description: as §1, §2

[7] = molecular target: T1, full length human EGFR expressed on the …; assay: cell ELISA, IgG titrated on unfixed A431-NS cells after saturation with Fab 992 and Fab 1024; given as ED50
Description: as §1, §2

[8] = molecular target: T2, Cynomolgus EGFR extracellular domain (Cynomolgus monkey (Macaca fascicularis), UniProt P55245 25-645 (rhesus entry)); assay: ELISA on coated Cynomolgus rEGFR ECD
T2 construct: Cloned without signal peptide; also called Cynomolgus rEGFR ECD; Cynomolgus EGFR ECD
Description: To verify that tested Anti-EGFR antibodies bound equally well to both Human and Cynomolgus EGFR ECD and accordingly warranting toxicology studies in Cynomolgus monkeys, serial four fold dilutions of antibodies beginning from 1 μg/ml were tested by ELISA for binding to recombinant Human and Cynomolgus EGFR ECD proteins. […] ELISA wells were coated with 50 μl/well of full length EGFR at a concentration of 1 μg/ml in PBS overnight at 4° C. The next morning wells were washed twice with PBS-T and blocked for one hour with 100 μl PBS-T-1% BSA at room temperature, followed by wash twice in PBS-T. Next 50 μl of serially diluted Anti-EGFR antibodies and control antibodies were added to wells and incubated for one hour at room temperature. After antibody incubation wells were washed five times with PBS-T, followed by incubation with 50 μl/well Streptavidin-HRP secondary reagent diluted 1:3000 in blocking buffer and incubation at room temperature for 30 min. Finally wells were washed five times with PBS-T and plates were developed by adding 50 μL/well TMB substrate and incubated at room temperature. After incubation the reaction was stopped by addition of 1 M H₂SO₄; 100 μl/well and plates were read at OD 450 nm.

[9] = molecular target: T3, wild type full length EGFR purified from A431 cells (human, UniProt P00533 25-1210); assay: EGF blocking ELISA on coated full length EGFR; blocked ligand biotinylated EGF
T3 construct: mature; Bought; coated on ELISA wells; also called full length EGFR receptor antigen; Sigma E3641
Description: The next morning wells were washed twice with PBS-T and blocked for one hour with 150 μl PBS-T-1% BSA at room temperature, followed by wash twice in PBS-T. Next 80 μl of serially diluted Anti-EGFR antibodies and control antibodies were added to wells and incubated 30 min at room temperature. […] Subsequently wells were washed five times with PBS-T, followed by incubation with 100 μl/well Streptavidin-HRP secondary reagent diluted 1:1000 in blocking buffer and incubation at room temperature for 30 min. Finally wells were washed five times with PBS-T and plates were developed by adding 100 μl/well TMB substrate and incubated for 60 min. After incubation the reaction was stopped by addition of 1 M H₂SO₄; 100 μl/well and plates were read at OD 450 nm.

| Binder | Log ED50 [2] | EC50 [3] [nM] | EC50 [5] [nM] | IC50 (read off the curve) [9] [ng mAb/ml] | further results |
| --- | --- | --- | --- | --- | --- |
| B1 | -0.56 | 0.3 |  |  | EC50 [1]: 0.4 nM; EC50 [4]: 0.5 nM |
| B2 | -0.49 | 0.3 | 0.9 |  | EC50 [6]: 0.8 nM |
| B3 | 0.17 | 1.5 | 1.6 |  | EC50 [7]: 2.2 nM |
| B4 |  |  |  | ~20 | binding result [8]: binds |
| B5 |  |  |  | ~50 |  |
